According to patent US6555734B2, “Genetic sequences encoding substrate-specific dihydroflavonol 4-reductase and uses therefor” (Korea Kumho Petrochemical Co., Ltd., priority 2000, dated 2003):
Entries after “also recorded” stand apart in the source; their conditions may differ.

Experiments:
[1] = from literature; cited from earlier work
[2] = test system: WV Petunia line (dfr^−/−, F3′5′H^+/+); experiment: TLC analysis of pigments in WV crossed lines; type: in vivo
Description: (§1) In accordance with the present invention, a DHK-specific DFR was developed by replacing asparagine at 134th amino acid residue of Gerbera DFR to leucine. […] Since the W80 Petunia line we transformed accumulates mainly DHK with small amount of DHQ and DHM, it was not clear if the N134L mutant DFR completely lost the capability of reducing DHQ and DHM. To investigate if the N134L mutant DFR produces only pelargonidin in the presence of fully active flavonoid-3′-hydroxylase (F3′H) or flavonoid-3′,5′-hydroxylase (F3′5′H), we crossed our N134L transformant with Petunia lines that are either dfr^−/−/F3′H^+/+ (WR line) or dfr^−/−/F3′5′H^+/+ (WV line). […] To determine the pigments produced in these crossed lines, we performed TLC analysis.
(§2) Gerbera DFR genes containing one amino acid point mutation were made in a similar manner as the chimeric genes. The 5′ region was synthesized using a primer having the Gerbera DFR starting methionine and a primer containing a single codon change. The 3′ region was made with a complementary primer with the single codon change and a primer having the stop codon of Gerbera DFR. The full length mutant sequence was assembled like the chimeric genes above. Each point mutant was cloned into a vector having the 35S CaMV promoter and NOS terminator. The mutagenized region of each mutant DFR was sequenced to ensure the correct residue was changed. Point mutants were then transformed into the W80 Petunia line. The transformants expressing the DFR genes were crossed with WR Petunia line (dfr^−/−, F3′H^+/+) and WV Petunia line (dfr^−/−, F3′5′H^+/+) to determine the substrate specificity of the mutated DFR. Mutations in other loci were not determined in these two Petunia lines.
(§3) Anthocyanidins were separated on cellulose TLC plates as described (Johnson, et al. Plant J. 19:81-85 (1999)). Corollas were sometimes stored at 4° C. for extended periods of time in methanol-0.5% HCl solution. Before adding iso-amylalcohol, the flower extracts were quantified at 530 nm to ensure uniform loading on the TLC plate. […]

[3] = test system: WR Petunia line (dfr^−/−, F3′H^+/+); experiment: TLC analysis of pigments in WR crossed lines; type: in vivo
Description: as §1, §2, §3

[4] = test system: WR Petunia line (dfr^−/−, F3′H^+/+); experiment: Flower colour of WR Petunia line crossed with DFR transformants; type: in vivo
Description: as §1
(§4) Gerbera DFR genes containing one amino acid point mutation were made in a similar manner as the chimeric genes. The 5′ region was synthesized using a primer having the Gerbera DFR starting methionine and a primer containing a single codon change. The 3′ region was made with a complementary primer with the single codon change and a primer having the stop codon of Gerbera DFR. The full length mutant sequence was assembled like the chimeric genes above. Each point mutant was cloned into a vector having the 35S CaMV promoter and NOS terminator. […] Mutations in other loci were not determined in these two Petunia lines.

[5] = test system: white flowered Petunia mutant (W80); experiment: TLC analysis of anthocyanidins produced in transgenic W80 Petunia flowers; type: in vivo; settings: W80 line, anthocyanidins on cellulose TLC against pelargonidin, cyanidin, delphinidin standards
Description: In accordance with the present invention, the substrate specificity determining region was identified by determining the abilities of three chimeric DFRs to catalyze the reduction of DHK in the transgenic Petunia lines. In order to identify the region of DFR that determines its substrate specificity, we constructed chimeric DFR genes using cDNA sequences of Petunia (SEQ ID NO: 35) and Gerbera (SEQ ID NO; 1). […] We built three different chimeric genes using regions of high homology as common PCR primer sites (FIG. 1A). The chimeric genes were transformed into a white flowered Petunia mutant (W80) that lacks DFR activity and accumulates primarily DHK but with appreciable amounts of dihydroquercetin (DHQ) and dihydromyricetin (DHM) (Huits et at, 1994). […] The hue of Chimera 1 flowers is very similar to the inbred Petunia mutant RLO1, which has functional DFR activity and accumulates DHK. […] The identified region (approx. 40 amino acids) is highly variable in DFRs from different plant species. By excluding the completely conserved amino acid sequences at the borders, the identified region is narrowed down to 26 amino acids. Hereinafter, this region is referred as substrate specificity determining region.
Anthocyanidins were separated on cellulose TLC plates as described (Johnson, et al. Plant J. 19:81-85 (1999)). Corollas were sometimes stored at 4° C. for extended periods of time in methanol-0.5% HCl solution. Before adding iso-amylalcohol, the flower extracts were quantified at 530 nm to ensure uniform loading on the TLC plate. Anthocyanin standards were purchased from Apin Chemicals Ltd. (Oxfordshire, England).

[6] = test system: WV Petunia line (dfr^−/−, F3′5′H^+/+); experiment: Flower colour of WV Petunia line crossed with DFR transformants; type: in vivo
Description: as §1, §4

[7] = test system: white flowered Petunia mutant (W80); type: in vivo; settings: W80 line (lacks DFR activity, accumulates primarily DHK); DFR gene under 35S CaMV promoter
[8] = Substrate specificity of DFR (reduction of dihydroflavonols); settings: concluded from flower colour and TLC data of WR and WV crosses
Description: as §1, §4

B1: maize DFR: maize DFR introduced into a Petunia mutant line (Meyer et al.) (protein, UniProt P51108 1-357, looked up)
Dihydroflavonol 4-reductase: MERGAGASEKGTVLVTGASGFVGSWLVMKLLQAGYTVRATVRDPANVGKTKPLMDLPGATERLSIWKADLAEEGSFHDAIRGCTGVFHVATPMDFLSKDPENEVIKPTVEGMISIMRACKEAGTVRRIVFTSSAGTVNLEERQRPVYDEESWTDVDFCRRVKMTGWMYFVSKTLAEKAALAYAAEHGLDLVTIIPTLVVGPFISASMPPSLITALALITGNAPHYSILKQVQLIHLDDLCDAEIFLFENPAAAGRYVCSSHDVTIHGLAAMLRDRYPEYDVPQRFPGIQDDLQPVRFSSKKLQDLGFTFRYKTLEDMFDAAIRTCQEKGLIPLATAAGGDGFASVRAPGETEATIGA
substrate use among DHK, DHQ and DHM [1]: can convert all three dihydroflavonols to their leucocyanidins

B2: Gerbera DFR: wild type Gerbera dihydroflavonol 4-reductase (SEQ ID NO: 2) (protein)
chain: MEEDSPATVCVTGAAGFIGSWLVMRLLERGYVVHATVRDPGDLKKVKHLLELPKAQTNLKLWKADLTQEGSFDEAIQGCHGVFHLATPMDFESKDPENEIIKPTIEGVLSIIRSCVKAKTVKKLVFTSSAGTVNGQEKQLHVYDESHWSDLDFIYSKKMTAWMYFVSKTLAEKAAWDATKGNNISFISIIPTLVVGPFITSTFPPSLVTALSLITGNEAHYSIIKQGQYVHLDDLCECHIYLYENPKAKGRYICSSHDATIHQLAKIIKDKWPEYYIPTKFPGIDEELPIVSFSSKKLIDTGFEFKYNLEDMFKGAIDTCREKGLLPYSTIKNHINGNHVNGVHHYIKNNDDDHEKGLLCCSKEGQ
pigments accumulated in crossed line (TLC) ([2]; listed as DFR^WT): accumulated mainly delphinidin
pigments accumulated in crossed line (TLC) ([2]; listed as wild type DFR): delphinidin
pigments accumulated in crossed line (TLC) ([3]; listed as DFR^WT): mainly accumulated cyanidin
pigments accumulated in crossed line (TLC) ([3]; listed as wild type DFR): cyanidin
flower color of crossed line [4]: red colored flowers
pigments produced in transgenic Petunia flowers (TLC) ([5]; listed as native Gerbera DFR): production of appreciable amounts of cyanidin and delphinidin in addition to pelargonidin
pigments produced in transgenic Petunia flowers (TLC) ([5]; listed as wild type Gebera DFR): accumulated significant amount of cyanidin and delphinidin in addition to perlargonidin
substrate use among DHK, DHQ and DHM [1]: able to catalyze dihydrokaempferol (DHK)
flower color of crossed line [6]: violet colored flowers
flower color of transgenic Petunia [7]: orange/bric-red color

B3: N134L: DFR that has leucine instead of aspargine at the 134th position of Gerbera DFR (SEQ ID NO 4) (protein)
chain: MEEDSPATVCVTGAAGFIGSWLVMRLLERGYVVHATVRDPGDLKKVKHLLELPKAQTNLKLWKADLTQEGSFDEAIQGCHGVFHLATPMDFESKDPENEIIKPTIEGVLSIIRSCVKAKTVKKLVFTSSAGTVLGQEKQLHVYDESHWSDLDFIYSKKMTAWMYFVSKTLAEKAAWDATKGNNISFISIIPTLVVGPFITSTFPPSLVTALSLITGNEAHYSIIKQGQYVHLDDLCECHIYLYENPKAKGRYICSSHDATIHQLAKIIKDKWPEYYIPTKFPGIDEELPIVSFSSKKLIDTGFEFKYNLEDMFKGAIDTCREKGLLPYSTIKNHINGNHVNGVHHYIKNNDDDHEKGLLCCSKEGQ
pigments accumulated in crossed line (TLC) ([2]; listed as DFR^N134L): did not accumulated any pigment other than background level of delphinidin; also recorded: no appreciable amounts of anthocyanidins accumulated other than a background level of delphinidin
pigments accumulated in crossed line (TLC) ([3]; listed as DFR^N134L): accumulated pelargonidin and cyanidin; also recorded: accumulated a large amount of pelargonidin
flower color of crossed line [4]: orange colored flowers
pigments produced in transgenic Petunia flowers (TLC) [5]: accumulated mostly pelargonidin
pigments produced in transgenic Petunia flowers (TLC) ([5]; listed as DHK-specific DFR): production of only pelargonidin
substrate preference among DHK, DHQ and DHM [8]: preferentially utilizes DHK as a substrate over DHQ and cannot reduce DHM
flower color of crossed line [6]: white flowers
flower color of transgenic Petunia [7]: slightly different colored flowers
